Measured values published in paper PMC6125358, “Mapping the Interface of a GPCR Dimer: A Structural Model of the A2A Adenosine and D2 Dopamine Receptor Heteromer” (Frontiers in Pharmacology, 2018).

B1: 3xHA-D2R^GFP2 (human D2 dopamine receptor, wild type) [human] / human adenosine receptor fused to Renilla luciferase (A2AR^Rluc) [human] (parent)
chain 1: MPIMGSSVYITVELAIAVLAILGNVLVCWAVWLNSNLQNVTNYFVVSLAAADIAVGVLAIPFAITISTGFCAACHGCLFIACFVLVLTQSSIFSLLAIAIDRYIAIRIPLRYNGLVTGTRAKGIIAICWVLSFAIGLTPMLGWNNCGQPKEGKNHSQGCGEGQVACLFEDVVPMNYMVYFNFFACVLVPLLLMLGVYLRIFLAARRQLKQMESQPLPGERARSTLQKEVHAAKSLAIIVGLFALCWLPLHIINCFTFFCPDCSHAPLWLMYLAIVLSHTNSVVNPFIYAYRIREFRQTFRKIIRSHVLRQQEPFKAAGTSARVLAAHGSDGEQVSLRLNGHPPGVWANGSAPHPERRPNGYALGLVSGGSAQESQGNTGLPDVELLSHELKGVCPEPPGLDDPLAQDGAGVS
chain 2: MDPLNLSWYDDDLERQNWSRPFNGSDGKADRPHYNYYATLLTLLIAVIVFGNVLVCMAVSREKALQTTTNYLIVSLAVADLLVATLVMPWVVYLEVVGEWKFSRIHCDIFVTLDVMMCTASILNLCAISIDRYTAVAMPMLYNTRYSSKRRVTVMISIVWVLSFTISCPLLFGLNNADQNECIIANPAFVVYSSIVSFYVPFIVTLLVYIKIYIVLRRRRKRVNTKRSSRAFRAHLRAPLKGNCTHPEDMKLCTVIMKSNGSFPVNRRRVEAARRAQELEMEMLSSTSPPERTRYSPIPPSHHQLTLPDPSHHGLHSTPDSPAKPEKNGHAKDHPKIAKIFEIQTMPNGKTRTSLKTMSRRKLSQQKEKKATQMLAIVLGVFIICWLPFFITHILNIHCDCNIPPVLYSAFTWLGYVNSAVNPIIYTTFNIEFRKAFLKILHC

Variants of: B1
Assay: BRET2 saturation assay
Settings: with human A2A adenosine receptor fused to Renilla luciferase (A2AR^Rluc) [human]; height of the fitted saturation curve read at x = 6 AU (GFP2-GFP2_0)/Rluc; co-expressed in cells; DeepBlueC substrate, 10 min incubation; read off a plot

| response (netBRET2 ratio) | Variant |
| --- | --- |
| 0.048 | chain 2 MDPLNLSWYDDDLERQNWSRPFNGSDGKADRPHYNYYATLLTLLIAVIVFGNVLVCMAVSREKALQTTTNYLIVSLAVADLLVATLVMPWVVYLEVVGEWKFSRIHCDIFVTLDVMMCTASILNLCAISIDRYTAVAMPMLYNTRYSSKRRVTVMISIVWVLSFTISCPLLFGLNNADQNECIIANPAFVVYSSIVSFYVPFIVTLAVYIAIYIVLRRRRKRVNTKRSSRAFRAHLRAPLKGNCTHPEDMKLCTVIMKSNGSFPVNRRRVEAARRAQELEMEMLSSTSPPERTRYSPIPPSHHQLTLPDPSHHGLHSTPDSPAKPEKNGHAKDHPKIAKIFEIQTMPNGKTRTSLKTMSRRKLSQQKEKKATQMLAIVLGVFIICWLPFFITHILNIHCDCNIPPVLYSAFTWLGYVNSAVNPIIYTTFNIEFRKAFLKILHC [chain 2 L207A K211A] |
| 0.056 | chain 2 MDPLNLSWYDDDLERQNWSRPFNGSDGKADRPHYNYYATLLTLLIAVIVFGNVLVCMAVSREKALQTTTNYLIVSLAVADLLVATLVMPWVVYLEVVGEWKFSRIHCDIFVTLDVMMCTASILNLCAISIDRYTAVAMPMLYNTRYSSKRRVTVMISIVWVLSFTISCPLLFGLNNADQNECIIANPAFVVASSIVSFYVPFIVTLLVYIKIYIVLRRRRKRVNTKRSSRAFRAHLRAPLKGNCTHPEDMKLCTVIMKSNGSFPVNRRRVEAARRAQELEMEMLSSTSPPERTRYSPIPPSHHQLTLPDPSHHGLHSTPDSPAKPEKNGHAKDHPKIAKIFEIQTMPNGKTRTSLKTMSRRKLSQQKEKKATQMLAIVLGVFIICWLPFFITHILNIHCDCNIPPVLYSAFTWLGYVNSAVNPIIYTTFNIEFRKAFLKILHC [chain 2 Y192A] |
